Ki data for 6 molecules are collected here from patent US20260015399A1 (Boehringer Ingelheim, published 2026).

*1 amine or outer side, *2 acyl side, *3 side chain or, on linkers, in order; H or OH if unused. Side-chain parts run from the residue outwards. The star is where a group is joined. C18 diacid = O=C(O)CCCCCCCCCCCCCCCCC(=O)*; γGlu = O=C(O)[C@H](CCC(=O)[*:2])N[*:1]; Isovaleryl = CC(C)CC(=O)*; Ahx = NCCCCCC(=O)O

T1: human NPY2 receptor (human, UniProt P49146 1-381)
T1 construct: whole, on cells; also called hNPY2-R; hNPY2R
T1 sequence (looked up): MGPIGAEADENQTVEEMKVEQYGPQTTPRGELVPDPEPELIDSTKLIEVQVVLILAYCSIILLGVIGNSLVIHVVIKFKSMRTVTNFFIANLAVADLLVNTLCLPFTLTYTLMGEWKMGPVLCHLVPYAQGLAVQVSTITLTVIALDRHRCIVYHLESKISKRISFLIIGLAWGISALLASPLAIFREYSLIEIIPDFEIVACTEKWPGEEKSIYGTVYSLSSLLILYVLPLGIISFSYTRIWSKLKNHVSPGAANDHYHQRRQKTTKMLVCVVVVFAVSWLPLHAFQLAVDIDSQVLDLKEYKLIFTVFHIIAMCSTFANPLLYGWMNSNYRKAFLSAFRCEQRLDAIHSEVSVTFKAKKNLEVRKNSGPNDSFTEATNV

B1: Compound 171 (peptide)
peptide: Isovaleryl-APEK([Ahx-γGlu-C18 diacid])PEADASPEELQRYYVELRHYYNWLTRQRY-NH2
SMILES: CC(C)CC(=O)N[C@@H](C)C(=O)N1CCC[C@H]1C(=O)N[C@@H](CCC(=O)O)C(=O)N[C@@H](CCCCNC(=O)CCCCCNC(=O)CC[C@H](NC(=O)CCCCCCCCCCCCCCCCC(=O)O)C(=O)O)C(=O)N1CCC[C@H]1C(=O)N[C@@H](CCC(=O)O)C(=O)N[C@@H](C)C(=O)N[C@@H](CC(=O)O)C(=O)N[C@@H](C)C(=O)N[C@@H](CO)C(=O)N1CCC[C@H]1C(=O)N[C@@H](CCC(=O)O)C(=O)N[C@@H](CCC(=O)O)C(=O)N[C@@H](CC(C)C)C(=O)N[C@@H](CCC(N)=O)C(=O)N[C@@H](CCCNC(=N)N)C(=O)N[C@@H](Cc1ccc(O)cc1)C(=O)N[C@@H](Cc1ccc(O)cc1)C(=O)N[C@H](C(=O)N[C@@H](CCC(=O)O)C(=O)N[C@@H](CC(C)C)C(=O)N[C@@H](CCCNC(=N)N)C(=O)N[C@@H](Cc1c[nH]cn1)C(=O)N[C@@H](Cc1ccc(O)cc1)C(=O)N[C@@H](Cc1ccc(O)cc1)C(=O)N[C@@H](CC(N)=O)C(=O)N[C@@H](Cc1c[nH]c2ccccc12)C(=O)N[C@@H](CC(C)C)C(=O)N[C@H](C(=O)N[C@@H](CCCNC(=N)N)C(=O)N[C@@H](CCC(N)=O)C(=O)N[C@@H](CCCNC(=N)N)C(=O)N[C@@H](Cc1ccc(O)cc1)C(N)=O)[C@@H](C)O)C(C)C
B2: Compound 177 (peptide)
peptide: Isovaleryl-APEK([Ahx-γGlu-C18 diacid])PEEDATPEELQQYYVSLRHYYNWLTRQRY-NH2
SMILES: CC(C)CC(=O)N[C@@H](C)C(=O)N1CCC[C@H]1C(=O)N[C@@H](CCC(=O)O)C(=O)N[C@@H](CCCCNC(=O)CCCCCNC(=O)CC[C@H](NC(=O)CCCCCCCCCCCCCCCCC(=O)O)C(=O)O)C(=O)N1CCC[C@H]1C(=O)N[C@@H](CCC(=O)O)C(=O)N[C@@H](CCC(=O)O)C(=O)N[C@@H](CC(=O)O)C(=O)N[C@@H](C)C(=O)N[C@H](C(=O)N1CCC[C@H]1C(=O)N[C@@H](CCC(=O)O)C(=O)N[C@@H](CCC(=O)O)C(=O)N[C@@H](CC(C)C)C(=O)N[C@@H](CCC(N)=O)C(=O)N[C@@H](CCC(N)=O)C(=O)N[C@@H](Cc1ccc(O)cc1)C(=O)N[C@@H](Cc1ccc(O)cc1)C(=O)N[C@H](C(=O)N[C@@H](CO)C(=O)N[C@@H](CC(C)C)C(=O)N[C@@H](CCCNC(=N)N)C(=O)N[C@@H](Cc1c[nH]cn1)C(=O)N[C@@H](Cc1ccc(O)cc1)C(=O)N[C@@H](Cc1ccc(O)cc1)C(=O)N[C@@H](CC(N)=O)C(=O)N[C@@H](Cc1c[nH]c2ccccc12)C(=O)N[C@@H](CC(C)C)C(=O)N[C@H](C(=O)N[C@@H](CCCNC(=N)N)C(=O)N[C@@H](CCC(N)=O)C(=O)N[C@@H](CCCNC(=N)N)C(=O)N[C@@H](Cc1ccc(O)cc1)C(N)=O)[C@@H](C)O)C(C)C)[C@@H](C)O
B3: Compound 179 (peptide)
peptide: Isovaleryl-APEK([Ahx-γGlu-C18 diacid])PEADASPEETQRYYVALRHYYNWLTRQRY-NH2
SMILES: CC(C)CC(=O)N[C@@H](C)C(=O)N1CCC[C@H]1C(=O)N[C@@H](CCC(=O)O)C(=O)N[C@@H](CCCCNC(=O)CCCCCNC(=O)CC[C@H](NC(=O)CCCCCCCCCCCCCCCCC(=O)O)C(=O)O)C(=O)N1CCC[C@H]1C(=O)N[C@@H](CCC(=O)O)C(=O)N[C@@H](C)C(=O)N[C@@H](CC(=O)O)C(=O)N[C@@H](C)C(=O)N[C@@H](CO)C(=O)N1CCC[C@H]1C(=O)N[C@@H](CCC(=O)O)C(=O)N[C@@H](CCC(=O)O)C(=O)N[C@H](C(=O)N[C@@H](CCC(N)=O)C(=O)N[C@@H](CCCNC(=N)N)C(=O)N[C@@H](Cc1ccc(O)cc1)C(=O)N[C@@H](Cc1ccc(O)cc1)C(=O)N[C@H](C(=O)N[C@@H](C)C(=O)N[C@@H](CC(C)C)C(=O)N[C@@H](CCCNC(=N)N)C(=O)N[C@@H](Cc1c[nH]cn1)C(=O)N[C@@H](Cc1ccc(O)cc1)C(=O)N[C@@H](Cc1ccc(O)cc1)C(=O)N[C@@H](CC(N)=O)C(=O)N[C@@H](Cc1c[nH]c2ccccc12)C(=O)N[C@@H](CC(C)C)C(=O)N[C@H](C(=O)N[C@@H](CCCNC(=N)N)C(=O)N[C@@H](CCC(N)=O)C(=O)N[C@@H](CCCNC(=N)N)C(=O)N[C@@H](Cc1ccc(O)cc1)C(N)=O)[C@@H](C)O)C(C)C)[C@@H](C)O
B4: Compound 180 (peptide)
peptide: Isovaleryl-APEK([Ahx-γGlu-C18 diacid])PEEDATPEELQRYYVSLRHYYNWLTKQRY-NH2
SMILES: CC(C)CC(=O)N[C@@H](C)C(=O)N1CCC[C@H]1C(=O)N[C@@H](CCC(=O)O)C(=O)N[C@@H](CCCCNC(=O)CCCCCNC(=O)CC[C@H](NC(=O)CCCCCCCCCCCCCCCCC(=O)O)C(=O)O)C(=O)N1CCC[C@H]1C(=O)N[C@@H](CCC(=O)O)C(=O)N[C@@H](CCC(=O)O)C(=O)N[C@@H](CC(=O)O)C(=O)N[C@@H](C)C(=O)N[C@H](C(=O)N1CCC[C@H]1C(=O)N[C@@H](CCC(=O)O)C(=O)N[C@@H](CCC(=O)O)C(=O)N[C@@H](CC(C)C)C(=O)N[C@@H](CCC(N)=O)C(=O)N[C@@H](CCCNC(=N)N)C(=O)N[C@@H](Cc1ccc(O)cc1)C(=O)N[C@@H](Cc1ccc(O)cc1)C(=O)N[C@H](C(=O)N[C@@H](CO)C(=O)N[C@@H](CC(C)C)C(=O)N[C@@H](CCCNC(=N)N)C(=O)N[C@@H](Cc1c[nH]cn1)C(=O)N[C@@H](Cc1ccc(O)cc1)C(=O)N[C@@H](Cc1ccc(O)cc1)C(=O)N[C@@H](CC(N)=O)C(=O)N[C@@H](Cc1c[nH]c2ccccc12)C(=O)N[C@@H](CC(C)C)C(=O)N[C@H](C(=O)N[C@@H](CCCCN)C(=O)N[C@@H](CCC(N)=O)C(=O)N[C@@H](CCCNC(=N)N)C(=O)N[C@@H](Cc1ccc(O)cc1)C(N)=O)[C@@H](C)O)C(C)C)[C@@H](C)O
B5: Compound 181 (peptide)
peptide: Isovaleryl-APAK([Ahx-γGlu-C18 diacid])PEADAEPEEIQRYYVALRHYYNWLTRQRY-NH2
SMILES: CC[C@H](C)[C@H](NC(=O)[C@H](CCC(=O)O)NC(=O)[C@H](CCC(=O)O)NC(=O)[C@@H]1CCCN1C(=O)[C@H](CCC(=O)O)NC(=O)[C@H](C)NC(=O)[C@H](CC(=O)O)NC(=O)[C@H](C)NC(=O)[C@H](CCC(=O)O)NC(=O)[C@@H]1CCCN1C(=O)[C@H](CCCCNC(=O)CCCCCNC(=O)CC[C@H](NC(=O)CCCCCCCCCCCCCCCCC(=O)O)C(=O)O)NC(=O)[C@H](C)NC(=O)[C@@H]1CCCN1C(=O)[C@H](C)NC(=O)CC(C)C)C(=O)N[C@@H](CCC(N)=O)C(=O)N[C@@H](CCCNC(=N)N)C(=O)N[C@@H](Cc1ccc(O)cc1)C(=O)N[C@@H](Cc1ccc(O)cc1)C(=O)N[C@H](C(=O)N[C@@H](C)C(=O)N[C@@H](CC(C)C)C(=O)N[C@@H](CCCNC(=N)N)C(=O)N[C@@H](Cc1c[nH]cn1)C(=O)N[C@@H](Cc1ccc(O)cc1)C(=O)N[C@@H](Cc1ccc(O)cc1)C(=O)N[C@@H](CC(N)=O)C(=O)N[C@@H](Cc1c[nH]c2ccccc12)C(=O)N[C@@H](CC(C)C)C(=O)N[C@H](C(=O)N[C@@H](CCCNC(=N)N)C(=O)N[C@@H](CCC(N)=O)C(=O)N[C@@H](CCCNC(=N)N)C(=O)N[C@@H](Cc1ccc(O)cc1)C(N)=O)[C@@H](C)O)C(C)C
B6: Compound 178 (peptide)
peptide: Isovaleryl-APEK([Ahx-γGlu-C18 diacid])PEAAATPEEIQRYYVALRHYYNWLTRQRY-NH2
SMILES: CC[C@H](C)[C@H](NC(=O)[C@H](CCC(=O)O)NC(=O)[C@H](CCC(=O)O)NC(=O)[C@@H]1CCCN1C(=O)[C@@H](NC(=O)[C@H](C)NC(=O)[C@H](C)NC(=O)[C@H](C)NC(=O)[C@H](CCC(=O)O)NC(=O)[C@@H]1CCCN1C(=O)[C@H](CCCCNC(=O)CCCCCNC(=O)CC[C@H](NC(=O)CCCCCCCCCCCCCCCCC(=O)O)C(=O)O)NC(=O)[C@H](CCC(=O)O)NC(=O)[C@@H]1CCCN1C(=O)[C@H](C)NC(=O)CC(C)C)[C@@H](C)O)C(=O)N[C@@H](CCC(N)=O)C(=O)N[C@@H](CCCNC(=N)N)C(=O)N[C@@H](Cc1ccc(O)cc1)C(=O)N[C@@H](Cc1ccc(O)cc1)C(=O)N[C@H](C(=O)N[C@@H](C)C(=O)N[C@@H](CC(C)C)C(=O)N[C@@H](CCCNC(=N)N)C(=O)N[C@@H](Cc1c[nH]cn1)C(=O)N[C@@H](Cc1ccc(O)cc1)C(=O)N[C@@H](Cc1ccc(O)cc1)C(=O)N[C@@H](CC(N)=O)C(=O)N[C@@H](Cc1c[nH]c2ccccc12)C(=O)N[C@@H](CC(C)C)C(=O)N[C@H](C(=O)N[C@@H](CCCNC(=N)N)C(=O)N[C@@H](CCC(N)=O)C(=O)N[C@@H](CCCNC(=N)N)C(=O)N[C@@H](Cc1ccc(O)cc1)C(N)=O)[C@@H](C)O)C(C)C

The target in the test is T1, human NPY2 receptor. As to the kind of experiment: RLB: displacement of 125I-PYY(1-36) from hNPY2R membranes.
The molecule B1 displayed a Ki of 2.83 nM.

B2 yielded a Ki of 8.65 nM. This Ki is about 3.1-fold higher than that of the molecule before.

As to B3, affinity was put at a Ki of 0.89 nM.

For B4, the Ki is 15.1 nM. This Ki lies about 17-fold higher than the previous one.

Take B5: the affinity, expressed as Ki, was 1.33 nM.

In turn, B6 returned a Ki of 3.39 nM.
